The target of this test is phosphorylated microtubule-associated protein (pMAP) labelled by the 12E8 antibody (chick (endogenous in primary chick neurons)). Description: FRET or BRET. Background: In BRET a luciferase serves as donor, and the signal depends on an acceptor being close.

In turn, “human cofilin-GFP (from UniProt P23528 1-166) (natural protein)” returned an FRET efficiency of 41%.

Values taken from PMC2821881.
